Entries after “also recorded” stand apart in the source; their conditions may differ.
Test system: young rats (10-12 weeks of age)
Assay: Long-term intra-cerebroventricular albumin perfusion in rats, telemetric ECoG recording and PSWE detection
Type: in vivo, rat
Protocol: All animal experiments were conducted following an ethical committee approval of the institution in which they were performed, Ben Gurion University of the Negev, Beer-Sheva, Israel or The University of California, Berkeley, Berkeley, Calif., US. Electrodes and wireless transmitters were implanted in the following animal groups: 1) Twelve weeks old (n=5) mice; 2) 18-22 months old (n=12) mice; 3) Nine to 11-weeks-old Wistar male rats implanted with 28 days long intra-cerebroventricular (ICV) perfusion osmotic pumps (N=8, 0.8 mM albumin infusion, N=5 ACSF infusion); 4) Sprague-Dawley rats (n=5, weighing 300 gr) 3 weeks after status epilepticus (SE, see below) and naïve rats (N=3). Groups 1 and 2 electrode coordinates: 0.5 mm rostral or 3.5 mm caudal and 1 mm lateral to bregma, on each side (4 screws, 2 in each hemisphere); Group 3 coordinates: 4.8 mm posterior or 2.7 mm anterior, and 2.2 mm lateral to bregma, on each side (4 screws, 2 in each hemisphere); Group 4 coordinates: 3 mm caudal and 2.5 mm lateral to bregma, on each side (2 screws, 1 in each hemisphere)). Continuous ECoG (sampling rate of 500 Hz) was recorded wirelessly from freely moving animals in their home cage for the described duration of experiments.
Signal processing was performed offline. Pre-processing included high pass filter (1 Hz), low pass filter (100 Hz) and notch (band-stop) filter (45-55 Hz). EEG human recordings were analyzed as reference to average. Human data were preprocessed by EEGLAB. Animal data were preprocessed using home-developed MATLAB (MathWorks Ltd., MA USA) scripts. To detect PSWE, ECoG or EEG signals were buffered into 2 sec long epochs with 1 sec overlap. Spectral analysis by Fast Fourier Transform (FFT) was applied and the median power frequency (MPF) was extracted for each epoch. PSWE was defined if MPF was <6 Hz for >5 consecutive seconds (see results). Analysis was performed separately for each recorded channel. Power spectrum as in FIG. 1A was calculated for the average channel and for animals ECoG data (e.g., FIG. 2A) over a single channel. FFT was also applied for the entire recording period buffered into 8 seconds epoch with 4 seconds overlap to analyze relative power across the frequency spectrum of 1-20 Hz. Processing was performed by self-developed MATLAB scripts.
The inventors next recorded ECoG from young rats (10-12 weeks of age) exposed to ICV albumin (N=8), compared to animals exposed to ACSF (controls, N=5).

[1] = ECoG spectral analysis, long-term albumin N=8 vs ACSF N=5

B1: albumin (protein, UniProt P02770 25-608, looked up)
Albumin: EAHKSEIAHRFKDLGEQHFKGLVLIAFSQYLQKCPYEEHIKLVQEVTDFAKTCVADENAENCDKSIHTLFGDKLCAIPKLRDNYGELADCCAKQEPERNECFLQHKDDNPNLPPFQRPEAEAMCTSFQENPTSFLGHYLHEVARRHPYFYAPELLYYAEKYNEVLTQCCTESDKAACLTPKLDAVKEKALVAAVRQRMKCSSMQRFGERAFKAWAVARMSQRFPNAEFAEITKLATDVTKINKECCHGDLLECADDRAELAKYMCENQATISSKLQACCDKPVLQKSQCLAEIEHDNIPADLPSIAADFVEDKEVCKNYAEAKDVFLGTFLYEYSRRHPDYSVSLLLRLAKKYEATLEKCCAEGDPPACYGTVLAEFQPLVEEPKNLVKTNCELYEKLGEYGFQNAVLVRYTQKAPQVSTPTLVEAARNLGRVGTKCCTLPEAQRLPCVEDYLSAILNRLCVLHEKTPVSEKVTKCCSGSLVERRPCFSALTVDETYVPKEFKAETFTFHSDICTLPDKEKQIKKQTALAELVKHKPKATEDQLKTVMGDFAQFVDKCCKAADKDNCFATEGPNLVARSKEALA
notes: serum protein infused ICV (0.8 mM, 28 days) in rats as a model of chronic BBB disruption
With B1 the “relative power in alpha (8-12 Hz) band compared with ACSF-injected animals” value [1] was “significantly lower”, the “relative power in beta (12-20 Hz) band compared with ACSF-injected animals” value [1] was “significantly lower” and the “relative power in the delta (1-5 Hz) band compared with ACSF-injected animals” value [1] was “significantly greater”. For the same molecule, the “occurrence per minute of PSWEs, albumin-injected hemisphere compared with the non-injected hemisphere” value (ICV osmotic pump, right lateral ventricle, four weeks after onset of perfusion, ipsilateral vs contralateral, N=8) was “significantly higher; also recorded: more common”, the “PSWE duration compared with the ACSF treated group” value (albumin treated group vs ACSF) was “significantly longer” and the “PSWE median frequency compared with the ACSF treated group” value (albumin treated group vs ACSF) was “slower; also recorded: significantly lower”. The “occurrence per minute of PSWEs, albumin-injected hemisphere compared with ACSF-injected controls” value (four weeks after onset of perfusion, albumin N=8 vs ACSF N=5) was “significantly higher; also recorded: more common” and the “higher occurrence per minute of PSWEs detected at one week” value (one week after onset of perfusion) was “not at one week”.

Reference: US20220369998A1, “METHODS FOR DIAGNOSING AND TREATING NEURAL DISEASES” (B. G. NEGEV TECHNOLOGIES AND APPLICATIONS LTD., AT …, priority 2019, published 2022)
